According to patent US20240101645A1 (HENRY M JACKSON FOUNDATION FOR THE ADVANCEMENT OF MILITARY …, published 2024):
Residue numbers refer to the chain shown, from its start.

B1: COV_1145 (antibody, V domains shown)
VH: QVQLVESGGGVVQPGRSLRLSCAASGFTFSSYGMHWVRQAPGKGLEWVAVIWYDGSNKYYADSVKGRFTISRDNSKNTLYLQMNSLRVEDTAVYYCAREGQLGATGLDCWGQGTLVSVSS
VL: SYELTQPPSVSVSPGQTARITCSGDALPKKYAYWYQQKSGQAPVLVIYEDSKRPSGIPERFSGSSSGTMATLTISGAQVEDEADYYCYSTDNSGNHWVFGGGTKLTVLG
notes: human IgG1
B2: COV_1177 (antibody, V domains shown)
VH: QVQLVESGGGVVQPGRSLRLSCAASGFTFSSYGMHWVRQAPGKGLEWVAVIWYDGSNKYYADSVKGRFTISRDNSKNTLYLQMNSLRAEDTAVYYCARDPLGAVAGYFDYWGQGTLVTVSS
VL: SYVLTQPPSVSVAPGQTARITCGGNNIGSKSVHWYQQKPGQAPVLVVYDDSDRPSGIPERFSGSNSGNTATLTISRVEAGDEADYYCQVWDSSSDHHWVFGGGTKLTVLG
notes: human IgG1
B3: COV_1184 (antibody, V domains shown)
VH: QVQLQQWGAGLLKPSETLSLTCAVYGGSFSGYYWSWIRQPPGKGLEWIGEINHSGNTTYNPSLKSRVTISVDTSKNQFSLKLSSVTAADTAVYYCARGLVITYYYDSSGKPFDPWGQGTLVTVSS
VL: not shown
notes: human IgG1
B4: COV_2032 (antibody, V domains shown)
VH: EVQLVESGGGLVQPGGSLRLSCAASGFTFTTYWMHWVRQAPGKGLVWVSRIKTDGSSTNYADSVKGRFTISRDNAKNMLYLQMNSLRAEDTAVYYCAREGPVSIVYFDYWGQGTLVTVSS
VL: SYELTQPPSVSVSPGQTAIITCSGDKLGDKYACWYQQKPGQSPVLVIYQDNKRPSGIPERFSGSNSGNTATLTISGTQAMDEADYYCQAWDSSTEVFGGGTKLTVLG
notes: human IgG1
B5: COV_2169 (antibody, V domains shown)
VH: EVQLVESGGGVVQPGRSLRLSCAASGFTFSRYAMHWVRQAPGKGLEWVAVISYEGSNKYYADSVKGRFTISRNNSNNTLSLQMNSLRPDDTAVYYCVRSGGHYFDAFDLWGQGTMVTVSS
VL: EIVLTQSPGTLSLSPGERATLSCRASQSVSRNYVAWYQQKPGQAPRLLIYGASSRATGIPDRFSGSGSGTDFTLTISRLEPEDFALYYCQQYGSSYTFGQGTKLEIKR
notes: human IgG1
B6: COV_2205 (antibody, V domains shown)
VH: EVQLVESGGGLVKPGGSLRLSCAASGFTFSDYYMIWIRQAPGEGLEWVSYISSRSSYTNYADSVKGRFTISRDNARNSLYLQMNSLRAEDTAVYYCARGQHDLLTGYYSWAYFDYWGQGTLVTVSS
VL: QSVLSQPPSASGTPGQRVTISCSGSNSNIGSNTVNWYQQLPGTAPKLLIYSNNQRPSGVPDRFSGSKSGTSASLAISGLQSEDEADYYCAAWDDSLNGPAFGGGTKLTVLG
notes: human IgG1
B7: COV_2215 (antibody, V domains shown)
VH: EVQLVESGGGLVKPGGSLRLSCAASGFTFSHAWMSWVRQAPGKGLEWVGRIKSKTDGGTADYAAPVKGRFTISRDDSKNTLYLQMNSLKTEDTAVYYCATIRYYYDSSAYLNDAFDIWGQGTMVTVSS
VL: B1 VL with N92S, W97R, G100A
notes: human IgG1
B8: COV_3069 (antibody, V domains shown)
VH: EVQLVESGGGLVKPGGSLRLSCAASGFTFGSYTMNWVRQAPGKGLEWVSSIDTTSSSIYYADSLKGRFAISRDSAKNSLYLQMNRLRAEDTAVYYCARGNGHSYDSSGYHYGMYFDYWGQGTLVTVSS
VL: DIQMTQSPSTLSASVGDRVTITCRASQSISRWLAWYQQKPGKAPKLLIYEVSSLENGVPSRFSGSRSGTEFTLTISSLQPDDFAIYYCQQYNTYSRTFGQGTKVEIKR
notes: human IgG1
B9: COV_3129 (antibody, V domains shown)
VH: QVQLQQWGAGLLKPSDTLSLTCAANGGGSFSGYYLGYIRQSPGKGLEWIGEINHNGGTNYNPSLKSRVTISGDTSKNQFSLKLSSVTAADTAIYYCARSRDSSLGDAVWYEYWGQGTLITVSS
VL: EIVLTQSPATLSLSPGERATLSCRASQSVDIYLAWYQQRPGQAPRLLISDASKRATGVPARFSGSGSGTDFTLTINSLEPEDFAIYYCQQRRDWPINFGQGTRLEIKR
notes: human IgG1
B10: COV_2125 (antibody, V domains shown)
VH: EVQLVESGGGVVQPGRSLRLSCAASGFTFSSYGMHWVRQAPGKGLEWVAVISYDGSNKYYADSVKGRFTISRDNSKNTLSLQMNSLRPEDTAVYYCAKDSPYYYDSSGYYPGYFQDWGQGSLVTVSS
VL: DIQMTQSPSSLSASIGDRVTITCRASQTISDYLNWYQQKPGKAPNLLIYAASTLQSGVPSRFSGSGSGTDFTLTISSLQPEDFATYYCQQSYITPRTFGQGTKVEIK
notes: human IgG1

Each binder was assayed against T1, HCoV-229E spike antigens (bead panel) (HCoV-229E, UniProt P15423 16-1115) (assay: multiplex bead assay).
T1 sequence: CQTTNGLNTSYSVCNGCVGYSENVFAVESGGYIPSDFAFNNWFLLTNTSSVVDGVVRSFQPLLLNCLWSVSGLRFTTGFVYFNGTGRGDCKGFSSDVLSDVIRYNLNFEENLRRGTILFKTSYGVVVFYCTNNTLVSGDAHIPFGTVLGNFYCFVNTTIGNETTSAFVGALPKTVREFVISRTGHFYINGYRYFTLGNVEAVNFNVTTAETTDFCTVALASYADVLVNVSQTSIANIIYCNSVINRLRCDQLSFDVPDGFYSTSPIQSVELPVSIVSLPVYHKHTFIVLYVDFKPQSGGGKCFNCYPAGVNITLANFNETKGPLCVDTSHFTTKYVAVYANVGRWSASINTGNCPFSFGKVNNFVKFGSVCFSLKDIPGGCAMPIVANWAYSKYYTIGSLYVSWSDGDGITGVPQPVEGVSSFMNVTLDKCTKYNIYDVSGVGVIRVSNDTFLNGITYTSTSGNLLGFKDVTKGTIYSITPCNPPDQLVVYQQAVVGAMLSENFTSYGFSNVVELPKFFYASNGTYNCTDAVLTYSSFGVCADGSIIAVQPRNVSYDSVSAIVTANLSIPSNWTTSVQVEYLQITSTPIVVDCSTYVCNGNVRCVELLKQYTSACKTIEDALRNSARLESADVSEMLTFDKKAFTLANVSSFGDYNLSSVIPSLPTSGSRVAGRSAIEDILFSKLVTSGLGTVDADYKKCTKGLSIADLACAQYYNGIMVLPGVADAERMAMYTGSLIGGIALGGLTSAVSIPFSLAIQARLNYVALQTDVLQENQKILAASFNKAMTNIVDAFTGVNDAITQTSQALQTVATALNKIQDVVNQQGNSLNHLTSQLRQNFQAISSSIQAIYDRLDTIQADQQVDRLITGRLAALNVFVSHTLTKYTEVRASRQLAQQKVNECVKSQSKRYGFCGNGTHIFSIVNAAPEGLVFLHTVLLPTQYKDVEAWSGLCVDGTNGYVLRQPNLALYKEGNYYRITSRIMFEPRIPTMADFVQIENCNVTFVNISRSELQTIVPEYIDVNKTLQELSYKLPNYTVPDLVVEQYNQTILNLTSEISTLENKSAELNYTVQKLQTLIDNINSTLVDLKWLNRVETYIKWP

| Binder | binding result |
| --- | --- |
| B1 | no binding |
| B2 | no binding |
| B3 | no binding |
| B4 | no binding |
| B5 | no binding |
| B6 | no binding |
| B7 | no binding |
| B8 | no binding |
| B9 | no binding |
| B10 | no binding |

These binders were tested against T2, HCoV-OC43 spike antigens (bead panel) (HCoV-OC43, UniProt P36334 14-1297) (assay: multiplex bead assay).
T2 sequence: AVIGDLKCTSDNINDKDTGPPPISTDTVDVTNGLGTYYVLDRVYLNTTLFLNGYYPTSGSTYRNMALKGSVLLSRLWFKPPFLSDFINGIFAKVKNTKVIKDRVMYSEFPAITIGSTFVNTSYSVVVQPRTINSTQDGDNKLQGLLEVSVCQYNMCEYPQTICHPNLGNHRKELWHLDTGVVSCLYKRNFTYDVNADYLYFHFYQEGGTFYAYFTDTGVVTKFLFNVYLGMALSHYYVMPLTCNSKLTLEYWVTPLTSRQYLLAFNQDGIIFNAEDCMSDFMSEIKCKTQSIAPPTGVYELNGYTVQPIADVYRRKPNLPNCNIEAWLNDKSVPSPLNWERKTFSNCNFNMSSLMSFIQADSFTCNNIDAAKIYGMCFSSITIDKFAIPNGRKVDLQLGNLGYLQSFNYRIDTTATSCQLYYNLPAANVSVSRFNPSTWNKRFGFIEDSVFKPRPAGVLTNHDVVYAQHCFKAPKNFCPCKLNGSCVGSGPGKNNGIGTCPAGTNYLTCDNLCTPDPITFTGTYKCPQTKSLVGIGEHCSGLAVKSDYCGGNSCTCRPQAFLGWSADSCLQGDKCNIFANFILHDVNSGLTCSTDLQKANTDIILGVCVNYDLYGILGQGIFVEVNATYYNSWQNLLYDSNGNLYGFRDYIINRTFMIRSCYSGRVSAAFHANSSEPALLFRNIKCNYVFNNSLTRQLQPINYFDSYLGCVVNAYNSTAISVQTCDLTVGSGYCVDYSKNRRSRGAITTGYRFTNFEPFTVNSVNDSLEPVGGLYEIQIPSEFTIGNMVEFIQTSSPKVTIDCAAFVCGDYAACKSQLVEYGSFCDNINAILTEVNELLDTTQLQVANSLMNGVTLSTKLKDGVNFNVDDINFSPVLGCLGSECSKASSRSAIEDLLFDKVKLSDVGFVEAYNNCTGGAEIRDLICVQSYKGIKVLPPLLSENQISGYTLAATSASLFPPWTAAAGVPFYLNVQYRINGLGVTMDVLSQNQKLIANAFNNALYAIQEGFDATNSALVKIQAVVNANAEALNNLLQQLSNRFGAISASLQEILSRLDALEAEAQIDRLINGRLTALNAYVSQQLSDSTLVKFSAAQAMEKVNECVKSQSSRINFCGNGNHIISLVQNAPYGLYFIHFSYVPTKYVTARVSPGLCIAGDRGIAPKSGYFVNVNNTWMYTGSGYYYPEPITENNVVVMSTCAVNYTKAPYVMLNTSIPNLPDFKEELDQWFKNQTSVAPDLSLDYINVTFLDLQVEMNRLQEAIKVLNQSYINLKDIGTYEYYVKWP

| Binder | binding result |
| --- | --- |
| B1 | no binding |
| B2 | no binding |
| B3 | no binding |
| B4 | no binding |
| B5 | no binding |
| B6 | no binding |
| B7 | no binding |
| B8 | no binding |
| B9 | no binding |
| B10 | no binding |
